B1: r16_88_TrROS_Hall (parent)
chain: EVIELKIKFKTPEQREKLKEIAKKLNAEVVEEKDGEVIIRFKTPEQAERALKEAEKLGAEVEL

Variants of: B1
Assay: folding stability dG (cDNA display proteolysis); higher = more stable
Details: PBS, room temperature

Row | Variant | folding stability dG
1 | V61H | 4.39 kcal/mol
2 | V61I | 4.29 kcal/mol
3 | V61L | 4.28 kcal/mol
4 | V61N | 4.28 kcal/mol
5 | V61G | 4.4 kcal/mol
6 | V61W | 3.96 kcal/mol
7 | V61Q | 4.22 kcal/mol
8 | V61K | 3.84 kcal/mol
9 | V61R | 3.46 kcal/mol
10 | V61S | 3.93 kcal/mol
11 | K8G | 4.05 kcal/mol
12 | K8R | 4.62 kcal/mol
13 | K8H | 4.25 kcal/mol
14 | A22R | 4.18 kcal/mol
15 | A22P | 3.7 kcal/mol
16 | A22K | 3.78 kcal/mol
17 | Q14A | 4.33 kcal/mol
18 | Q14K | 4.09 kcal/mol
19 | Q14V | 4.38 kcal/mol
20 | E20Q | 4.22 kcal/mol
21 | E20T | 4.5 kcal/mol
22 | E20R | 4.59 kcal/mol
23 | E20S | 4.41 kcal/mol
24 | E20A | 4.37 kcal/mol
25 | E20I | 4.45 kcal/mol

Row | Variant | folding stability dG
26 | E20Y | 4.95 kcal/mol
27 | K10A | 4.22 kcal/mol
28 | K10P | 4.2 kcal/mol
29 | K10V | 4.2 kcal/mol
30 | K10G | 4.21 kcal/mol
31 | K10E | 4 kcal/mol
32 | K10H | 4.28 kcal/mol
33 | K10T | 4.38 kcal/mol
34 | I39G | 3.23 kcal/mol
35 | I39R | 0.96 kcal/mol
36 | I39E | 2.69 kcal/mol
37 | A27I | 4.34 kcal/mol
38 | A27D | 3.12 kcal/mol
39 | A27V | 4.24 kcal/mol
40 | K52P | 3.91 kcal/mol
41 | K52F | 4.62 kcal/mol
42 | K52C | 4.33 kcal/mol
43 | L5S | 3.94 kcal/mol
44 | L5A | 4.37 kcal/mol
45 | L5F | 4.91 kcal/mol
46 | A59M | 4.39 kcal/mol
47 | A59R | 3.99 kcal/mol
48 | A59S | 4.26 kcal/mol
49 | A59L | 4.62 kcal/mol
50 | A59C | 4.17 kcal/mol

Row | Variant | folding stability dG
51 | A59T | 4.27 kcal/mol
52 | E48D | 4.47 kcal/mol
53 | E48Y | 4.67 kcal/mol
54 | E48C | 4.52 kcal/mol
55 | E48H | 4.52 kcal/mol
56 | E48S | 4.39 kcal/mol
57 | Q46H | 4.23 kcal/mol
58 | Q46K | 4.21 kcal/mol
59 | Q46S | 4.47 kcal/mol
60 | Q46P | 4.44 kcal/mol
61 | T43N | 3.86 kcal/mol
62 | T43Y | 4.43 kcal/mol
63 | T43D | 3.85 kcal/mol
64 | T43E | 3.61 kcal/mol
65 | T43L | 4.67 kcal/mol
66 | T43K | 4.36 kcal/mol
67 | T43V | 4.27 kcal/mol
68 | G35P | 3.8 kcal/mol
69 | G35L | 4.32 kcal/mol
70 | G35S | 4.48 kcal/mol
71 | G35C | 4.48 kcal/mol
72 | G35R | 4.42 kcal/mol
73 | G35N | 4.33 kcal/mol
74 | E4C | 4.76 kcal/mol
75 | E4I | 4.54 kcal/mol

Row | Variant | folding stability dG
76 | L18A | 4.39 kcal/mol
77 | L18K | 1.68 kcal/mol
78 | L18P | 1.65 kcal/mol
79 | L18G | 3.83 kcal/mol
80 | L18N | 2.97 kcal/mol
81 | G58M | 4.33 kcal/mol
82 | G58T | 4.26 kcal/mol
83 | G58L | 4.35 kcal/mol
84 | G58W | 4.21 kcal/mol
85 | G58D | 4.42 kcal/mol
86 | L25I | 4.46 kcal/mol
87 | L25R | 4.09 kcal/mol
88 | L25V | 4.32 kcal/mol
89 | L25D | 4.31 kcal/mol
90 | L25N | 4.13 kcal/mol
91 | L25S | 4.33 kcal/mol
92 | L25Y | 4.91 kcal/mol
93 | I3T | 4.67 kcal/mol
94 | I3K | 4.76 kcal/mol
95 | I3E | 4.3 kcal/mol
96 | I3G | 4.47 kcal/mol
97 | I3S | 4.71 kcal/mol
98 | E1I | 4.29 kcal/mol
99 | E1T | 4.26 kcal/mol
100 | E1W | 4.18 kcal/mol

Row | Variant | folding stability dG
101 | E1P | 4.22 kcal/mol
102 | N26H | 4.24 kcal/mol
103 | N26T | 4.41 kcal/mol
104 | N26R | 4.42 kcal/mol
105 | N26C | 4.33 kcal/mol
106 | N26P | 3.84 kcal/mol
107 | N26Y | 4.31 kcal/mol
108 | N26K | 4.44 kcal/mol
109 | K23Q | 4.27 kcal/mol
110 | L51C | 4.41 kcal/mol
111 | L51I | 4.41 kcal/mol
112 | L51W | 4.25 kcal/mol
113 | L51H | 4.79 kcal/mol
114 | R15G | 3.95 kcal/mol
115 | R15A | 4.13 kcal/mol
116 | R15S | 4.17 kcal/mol
117 | R15F | 4.35 kcal/mol
118 | R15L | 4.18 kcal/mol
119 | R15V | 4.29 kcal/mol
120 | K33I | 4.27 kcal/mol
121 | K33A | 4.37 kcal/mol
122 | K33W | 4.45 kcal/mol
123 | K33Q | 4.49 kcal/mol
124 | K33P | 4.27 kcal/mol
125 | V2S | 4.13 kcal/mol

Row | Variant | folding stability dG
126 | V2R | 4.21 kcal/mol
127 | V2M | 4.45 kcal/mol
128 | V2Q | 4.45 kcal/mol
129 | D34K | 4.19 kcal/mol
130 | D34P | 4.26 kcal/mol
131 | D34S | 4.25 kcal/mol
132 | D34G | 4.46 kcal/mol
133 | K24N | 4.46 kcal/mol
134 | K24A | 4.28 kcal/mol
135 | K24C | 4.53 kcal/mol
136 | K24G | 4.47 kcal/mol
137 | A50S | 3.9 kcal/mol
138 | A50F | 4.38 kcal/mol
139 | A50I | 4.4 kcal/mol
140 | A50R | 2.59 kcal/mol
141 | A50Q | 3.84 kcal/mol
142 | K6A | 4.22 kcal/mol
143 | K6W | 4.94 kcal/mol
144 | K6M | 4.43 kcal/mol
145 | K6H | 4.48 kcal/mol
146 | K6Q | 4.17 kcal/mol
147 | E31G | 4.41 kcal/mol
148 | E31P | 4.06 kcal/mol
149 | E31N | 4.49 kcal/mol
150 | P44I | 4.34 kcal/mol

Row | Variant | folding stability dG
151 | P44K | 4.61 kcal/mol
152 | P44M | 4.59 kcal/mol
153 | V30H | 4.35 kcal/mol
154 | V30C | 4.38 kcal/mol
155 | V30G | 4.26 kcal/mol
156 | V30A | 4.58 kcal/mol
157 | V30P | 4.07 kcal/mol
158 | K42D | 4.01 kcal/mol
159 | K42A | 4.1 kcal/mol
160 | K42I | 4.37 kcal/mol
161 | K42M | 4.18 kcal/mol
162 | K42N | 4.18 kcal/mol
163 | K42G | 4.03 kcal/mol
164 | K42P | 3.79 kcal/mol
165 | K42S | 4.23 kcal/mol
166 | A47Q | 4.8 kcal/mol
167 | A47L | 4.65 kcal/mol
168 | A47R | 4.53 kcal/mol
169 | R49H | 4.4 kcal/mol
170 | R40F | 4.66 kcal/mol
171 | R40V | 4.64 kcal/mol
172 | R40L | 4.5 kcal/mol
173 | R40D | 3.83 kcal/mol
174 | R40Y | 4.86 kcal/mol
175 | R40P | 2.96 kcal/mol

Row | Variant | folding stability dG
176 | E45F | 4.44 kcal/mol
177 | E45P | 4.16 kcal/mol
178 | E45L | 4.29 kcal/mol
179 | E45I | 4.5 kcal/mol
180 | E45T | 4.61 kcal/mol
181 | A54Y | 4.16 kcal/mol
182 | A54I | 4.43 kcal/mol
183 | A54M | 4.44 kcal/mol
184 | A54E | 3.03 kcal/mol
185 | A54N | 3.65 kcal/mol
186 | A54P | 2.86 kcal/mol
187 | A54T | 4.19 kcal/mol
188 | L63Y | 4.35 kcal/mol
189 | L63F | 4.07 kcal/mol
190 | L63T | 4.24 kcal/mol
191 | L63N | 4.3 kcal/mol
192 | E16C | 4.51 kcal/mol
193 | E16D | 4.24 kcal/mol
194 | E16H | 4.59 kcal/mol
195 | E16T | 4.36 kcal/mol
196 | E16L | 4.6 kcal/mol
197 | K56F | 4.23 kcal/mol
198 | K56R | 4.15 kcal/mol
199 | K56M | 4.57 kcal/mol
200 | K56A | 4.49 kcal/mol

Row | Variant | folding stability dG
201 | K56Y | 4.41 kcal/mol
202 | E62T | 4.4 kcal/mol
203 | E55Q | 4.48 kcal/mol
204 | E55A | 4.43 kcal/mol
205 | E55S | 4.51 kcal/mol
206 | E60W | 4.01 kcal/mol
207 | E60H | 4.19 kcal/mol
208 | E60N | 4.29 kcal/mol
209 | E60L | 4.21 kcal/mol
210 | E60C | 4.27 kcal/mol
211 | E60M | 4.11 kcal/mol
212 | E60I | 4.12 kcal/mol
213 | E60A | 4.12 kcal/mol
214 | E28W | 4.53 kcal/mol
215 | E28T | 4.4 kcal/mol
216 | E28R | 4.37 kcal/mol
217 | E28F | 4.17 kcal/mol
218 | E28S | 4.1 kcal/mol
219 | E28P | 4.34 kcal/mol
220 | K19Y | 4.89 kcal/mol
221 | K19C | 4.22 kcal/mol
222 | K19V | 4.14 kcal/mol
223 | K19D | 4.31 kcal/mol
224 | K19E | 4.12 kcal/mol
225 | K19Q | 4.3 kcal/mol

Row | Variant | folding stability dG
226 | K19F | 4.62 kcal/mol
227 | L57E | 4.36 kcal/mol
228 | L57G | 3.96 kcal/mol
229 | L57K | 3.5 kcal/mol
230 | L57F | 4.33 kcal/mol
231 | L57D | 4.08 kcal/mol
232 | L57C | 4.2 kcal/mol
233 | V29P | 4.1 kcal/mol
234 | V29D | 4.14 kcal/mol
235 | V29Y | 4.55 kcal/mol
236 | I7G | 4.36 kcal/mol
237 | I7W | 4.97 kcal/mol
238 | I7D | 1.65 kcal/mol
239 | I7E | 2.11 kcal/mol
240 | F9T | 3.73 kcal/mol
241 | F9Q | 3.28 kcal/mol
242 | F9W | 4.61 kcal/mol
243 | F9I | 3.96 kcal/mol
244 | F9C | 4.19 kcal/mol
245 | F9H | 4.19 kcal/mol
246 | F9R | 2.76 kcal/mol
247 | E32K | 4.45 kcal/mol
248 | E32C | 4.53 kcal/mol
249 | E32T | 4.52 kcal/mol
250 | E32P | 4.54 kcal/mol

Row | Variant | folding stability dG
251 | E32D | 4.39 kcal/mol
252 | E13G | 4.51 kcal/mol
253 | E13M | 4.65 kcal/mol
254 | E13L | 4.88 kcal/mol
255 | E13F | 4.99 kcal/mol
256 | E13C | 4.88 kcal/mol
257 | E13A | 4.33 kcal/mol
258 | I21M | 4.43 kcal/mol
259 | I21Y | 4.78 kcal/mol
260 | I21F | 4.76 kcal/mol
261 | I21N | 4.13 kcal/mol
262 | P12G | 4.38 kcal/mol
263 | P12S | 4.44 kcal/mol
264 | P12E | 4.46 kcal/mol
265 | P12Q | 4.3 kcal/mol
266 | P12C | 4.54 kcal/mol
267 | K17P | 4.28 kcal/mol
268 | K17I | 4.18 kcal/mol
269 | K17W | 4.61 kcal/mol
270 | K17A | 4.54 kcal/mol
271 | F41K | 0.67 kcal/mol
272 | F41T | 3.73 kcal/mol
273 | V37S | 4.19 kcal/mol
274 | V37I | 4.39 kcal/mol
275 | V37D | 3.02 kcal/mol

Row | Variant | folding stability dG
276 | V37A | 4.08 kcal/mol
277 | V37N | 3.52 kcal/mol
278 | V37G | 3.63 kcal/mol
279 | V37M | 4.33 kcal/mol
280 | V37Y | 4.14 kcal/mol
281 | T11W | 4.6 kcal/mol
282 | T11Q | 4.33 kcal/mol
283 | T11Y | 4.02 kcal/mol
284 | T11C | 4.58 kcal/mol
285 | T11K | 4.23 kcal/mol
286 | T11P | 3.48 kcal/mol
287 | T11L | 4.75 kcal/mol
288 | T11M | 4.62 kcal/mol
289 | T11R | 4.37 kcal/mol
290 | E53S | 4.21 kcal/mol
291 | E53V | 4.36 kcal/mol
292 | E53I | 4.27 kcal/mol
293 | E53T | 4.03 kcal/mol
294 | I38W | 4.96 kcal/mol
295 | I38K | 3.82 kcal/mol
296 | I38L | 4.25 kcal/mol
297 | I38P | 1.19 kcal/mol
298 | I38G | 3.78 kcal/mol
299 | I38Q | 4.33 kcal/mol

From the MegaScale stability set (Tsuboyama et al. 2023)
